Measured values taken from the supplement of paper PMC9233669.
Fewer inactive variants are shown than the library holds.

Key:
biotinyl-Ile-oxazolone = assay: self-aminoacylation, catalytic enhancement (BIO) (fold over background); higher = more active; k-Seq, kA / k0A0; sequences stand for … in GGGAAUGGAUCCACAUCUACGAAUUC…UUCACUGCAGACUUGACGAAGCUG
Procedure, shortened: (§1)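 Mutagenized RNA pools with a 21-nt variable region (0.43 μM) reacted with each biotinyl-aminoacyl-oxazolone at 2–1250 μM. Reactions ran in 50 μL HEPES/NaCl/KCl/MgCl2/CaCl2 buffer with 5% acetonitrile, pH 6.9–7.0, for 90 minutes at room temperature. Streptavidin-captured RNA was quantified by triplicate qPCR and Illumina sequencing, and per-sequence fraction reacted was fit to a pseudo-first-order model with 1000 bootstraps. Catalytic enhancement is median kA divided by the uncatalyzed rate, the low-activity peak of a bimodal Gaussian fit.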

biotinyl-Val-oxazolone = assay: self-aminoacylation, catalytic enhancement (BVO) (fold over background); higher = more active; k-Seq, kA / k0A0; sequences stand for … in GGGAAUGGAUCCACAUCUACGAAUUC…UUCACUGCAGACUUGACGAAGCUG
Procedure, shortened: as §1

biotinyl-Met-oxazolone = assay: self-aminoacylation, catalytic enhancement (BMO) (fold over background); higher = more active; k-Seq, kA / k0A0; sequences stand for … in GGGAAUGGAUCCACAUCUACGAAUUC…UUCACUGCAGACUUGACGAAGCUG
Procedure, shortened: as §1

biotinyl-Phe-oxazolone = assay: self-aminoacylation, catalytic enhancement (BFO) (fold over background); higher = more active; k-Seq, kA / k0A0; sequences stand for … in GGGAAUGGAUCCACAUCUACGAAUUC…UUCACUGCAGACUUGACGAAGCUG
Procedure, shortened: as §1

biotinyl-Trp-oxazolone = assay: self-aminoacylation, catalytic enhancement (BWO) (fold over background); higher = more active; k-Seq, kA / k0A0; sequences stand for … in GGGAAUGGAUCCACAUCUACGAAUUC…UUCACUGCAGACUUGACGAAGCUG
Procedure, shortened: as §1

biotinyl-Leu-oxazolone = assay: self-aminoacylation, catalytic enhancement (BLO) (fold over background); higher = more active; k-Seq, kA / k0A0; sequences stand for … in GGGAAUGGAUCCACAUCUACGAAUUC…UUCACUGCAGACUUGACGAAGCUG
Procedure, shortened: as §1

Sequence	self-aminoacylation (biotinyl-Ile-oxazolone)	self-aminoacylation (biotinyl-Val-oxazolone)	self-aminoacylation (biotinyl-Met-oxazolone)	self-aminoacylation (biotinyl-Phe-oxazolone)	self-aminoacylation (biotinyl-Trp-oxazolone)	self-aminoacylation (biotinyl-Leu-oxazolone)
AUUACCGGGGUCAUCGAGUGA [Fam2.1 aminoacylation ribozyme variant]	3.48	3.67	5.81	33.8	6.27	6.14
CCACUUCAAAGAAUCGGUCUG [Fam1A.1 aminoacylation ribozyme variant]	1.15	1.13	1.04	11.4	8.92	1.32
AUUAUCCUGGUCAUCGGGUGA [Fam2.1 aminoacylation ribozyme variant]	7.1	7.7	14.1	69.6	17.4	17.1
CCACGCUUAAAGCAAUCGGUC [Fam1B.1 aminoacylation ribozyme variant]	0.96	1.02	0.741	0.884	0.646	0.752
CUACUUCAAAUAAUCAGUCUG [Fam1A.1 aminoacylation ribozyme variant]	0.956	0.935	0.717	8.19	3.71	0.891
AAGUUUGAUAAUAGACGCAAG [Fam3.1 aminoacylation ribozyme variant]	0.364	0.418	0.346	0.787	0.331	0.311
AUUACCCUGGUCAUGUAGUGA [Fam2.1 aminoacylation ribozyme variant]	1.77	1.81	1.97	4.73	2.4	2
CCACAGUUCAAGCAAUAGGUC [Fam1B.1 aminoacylation ribozyme variant]	0.794	0.862	0.783	1.14	0.858	0.731
UCACACUUCAAGCAAUCGGUG [Fam1B.1 aminoacylation ribozyme variant]	3.81	3.95	5.17	29	6.38	7.95
AUUCACCUUGGUCAUCGGUUG [Fam2.2 aminoacylation ribozyme variant]	0.9	1.06	0.844	0.347	0.806	0.855
CUACUUCAGGCAAUCGGUCUG [Fam1A.1 aminoacylation ribozyme variant]	0.94	1.24	0.853	1.02	1.27	1.42
AUUACCAUGGUCAUCGAGUAA [Fam2.1 aminoacylation ribozyme variant]	1.41	1.42	1.7	1.09	1.28	1.33
AAGUUUCCUAAUAGUCGCGAG [Fam3.1 aminoacylation ribozyme variant]	2.47	2.48	2.04	3.66	2.04	2.26
AAGUUUGCUGAUAGUCACAAG [Fam3.1 aminoacylation ribozyme variant]	1.15	1.28	1.2	1.23	1.62	1.08
CUACCUCAAACAAUCGUUCUG [Fam1A.1 aminoacylation ribozyme variant]	0.711	0.672	0.525	0.62	0.863	0.588
AAGUUUGCUAAUCGUCGGAAG [Fam3.1 aminoacylation ribozyme variant]	0.972	0.869	0.704	1.64	1.42	0.799
AUUUCCCUGGUCCUCGAGUGA [Fam2.1 aminoacylation ribozyme variant]	2.08	1.93	3.79	23.5	3.91	3.67
AAGUUUGCUAGUAGUCCCAAG [Fam3.1 aminoacylation ribozyme variant]	1.01	1.14	0.75	1.65	1.68	0.873
CAGUUUGGUAAUAGUCGCAAG [Fam3.1 aminoacylation ribozyme variant]	1.85	1.67	1.73	2.57	1.97	1.73
AUUAACCUAGGUUAUCGGGUG [Fam2.2 aminoacylation ribozyme variant]	2.5	2.19	3.1	17.9	2.84	3.46
CAGUUUGCUAAUAGUCGCAAG [Fam3.1 aminoacylation ribozyme variant]	1.36	1.21	1.28	2.94	1.55	1.35
CCACACUUCAAGCAAUCCGUG [Fam1B.1 aminoacylation ribozyme variant]	2.79	2.47	3.21	26.9	2.78	5.32
AAGUUUGCAAAUAGUCACAAG [Fam3.1 aminoacylation ribozyme variant]	1.05	0.982	1.11	0.954	0.887	0.949
CUACACUUCAAGCAAUCGGUU [Fam1B.1 aminoacylation ribozyme variant]	1.29	1.27	1.47	9.78	7.05	1.46
AUUCACCUAGGUCAUCGCGUU [Fam2.2 aminoacylation ribozyme variant]	2.48	2.39	2.62	12.7	3.66	3
CCACACUUCGAGCAAUCGAUC [Fam1B.1 aminoacylation ribozyme variant]	0.471	0.481	0.361	0.547	0.387	0.487
